From the supplement of paper PMC12042874
± gives the uncertainty stated by the source.

Assay: amyloid nucleation score (Sup35N fusion, yeast selection) (log enrichment); library NNK1; higher = more nucleation; inactive = no reads after selection
Method in brief: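 Growth for 7 days at 30°C on medium lacking adenine and uracil followed a 24-hour induction with 100 μM copper sulfate of psi-negative yeast expressing peptides of 20 random codons fused to Sup35N. Input and output plasmid inserts were sequenced with Illumina, and sequences with under 100 input reads were excluded. Nucleation score is the DiMSum log enrichment of output over input reads, centred on the mode score of non-aggregating sequences.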
For SGWSYRRAGRHWMAMMGNKF, the amyloid nucleation score was -0.04 ± 0.34.
For SHEGIIMLMLTHQFSW, the amyloid nucleation score was 2.07 ± 0.14.
Work on SHEGTGLGMGAVG yielded an amyloid nucleation score of -0.01 ± 0.36.
With SHGAGYRFTEFIHHSGGLPN the amyloid nucleation score was 0.498 ± 0.39.
In the case of SHGSTLLARYCRINGWPATP, the amyloid nucleation score is reported as -0.167 ± 0.71.
SHIHCFFDDTTNTKKLVWPW gave an amyloid nucleation score of -0.563 ± 0.45.
Substance SHKRIWDIFNIGFHQCD has an amyloid nucleation score of 0.048 ± 0.59.
In the case of SHLCTMIGTCFL, the amyloid nucleation score is reported as 1.98 ± 0.13.
SHNVKSWCRYSDGQKGLCKY showed an amyloid nucleation score of 1.62 ± 0.43.
Work on SHPSKRLRTSKNVCACATNP yielded an amyloid nucleation score of -0.12 ± 0.4.
Substance SIEDHDYFLIAFY has an amyloid nucleation score of -0.076 ± 1.6.
SIGVGCGEVCFLYRSEPIFV gave an amyloid nucleation score of -0.04 ± 0.31.
SIIFGVKTFSVFSKIYGLCW gave an amyloid nucleation score of 3.3 ± 0.067.
With SILISMYGGSSKKCQRFEEG the amyloid nucleation score was 0.977 ± 0.47.
Substance SILLWDLKANF has an amyloid nucleation score of 0.346 ± 0.29.
In the case of SILTSNMGQSHVSMDVLVVW, the amyloid nucleation score is reported as “inactive”.
Substance SIPNSAQHFTSPPARFHSTG has an amyloid nucleation score of 0.042 ± 0.69.
With SIRFMLYVRVKR the amyloid nucleation score was -0.234 ± 0.66.
SISAASCIHFRMDVVCKTDF showed an amyloid nucleation score of -0.519 ± 0.41.
SIVIIG showed an amyloid nucleation score of -0.155 ± 0.7.
SIVMYDTNMTFRWSAYGRKN showed an amyloid nucleation score of 2.13 ± 0.096.
With SIYEVEGVTLGLEEHNMKGE the amyloid nucleation score was -0.43 ± 0.43.
Work on SIYSFDHYGANRFLFYGGLS yielded an amyloid nucleation score of 0.358 ± 0.62.
For SKASMEGYW, the amyloid nucleation score was 0.739 ± 0.54.
For SKAWNRAGELVVSCTMVS, the amyloid nucleation score was “inactive”.
SKRCWGDGMDTFSAIVEAIW showed an amyloid nucleation score of -0.128 ± 0.54.
SKRMNGRNP showed an amyloid nucleation score of 0.153 ± 0.47.
In the case of SKSCFFKQYLTSIIYLHTKK, the amyloid nucleation score is reported as 0.418 ± 0.32.
For SKSFGFEYPG, the amyloid nucleation score was -0.002 ± 0.37.
For SKSGGHASSNG, the amyloid nucleation score was 0.649 ± 0.85.
SKTEMSTTMFY gave an amyloid nucleation score of -0.037 ± 0.38.
SLATEYCSPFNINRFHLVSI gave an amyloid nucleation score of 1.78 ± 0.29.
With SLAYCSFHMLKIPLRSGPTW the amyloid nucleation score was 0.01 ± 1.2.
SLDCLLYTLVDCRAFSFYKN showed an amyloid nucleation score of -0.359 ± 0.39.
With SLDLMCGHQPRSCMVLDSRV the amyloid nucleation score was 0.983 ± 0.97.
For SLFLGVVHFAVRVSLGSVWG, the amyloid nucleation score was -0.771 ± 0.82.
Substance SLFRVDYIDRFLSQFVEYNG has an amyloid nucleation score of 0.333 ± 0.55.
Substance SLHILISH has an amyloid nucleation score of 0.537 ± 0.39.
For SLKFEYCFSPSNVAAVDWGT, the amyloid nucleation score was -0.34 ± 0.98.
Substance SLKFRLYSPNAMALNPKALF has an amyloid nucleation score of 0.581 ± 0.21.
In the case of SLKSSCRKNRLM, the amyloid nucleation score is reported as 0.048 ± 0.5.
With SLLFY the amyloid nucleation score was “inactive”.
With SLLTRDVYNRRAR the amyloid nucleation score was -0.562 ± 0.36.
With SLPFTFSLVMMCFFVCVRGL the amyloid nucleation score was -1.76 ± 1.2.
SLRSHML showed an amyloid nucleation score of 0.938 ± 0.98.
SLSKLAICMWSYIFNMSYFC showed an amyloid nucleation score of -0.139 ± 0.81.
With SLSRNYHPFRAKIFLCLGRN the amyloid nucleation score was 0.097 ± 0.82.
SLTTHSAGHPLYIHVFNVLV gave an amyloid nucleation score of 0.147 ± 0.35.
In the case of SLVCNMFLSILRYFGFLNRS, the amyloid nucleation score is reported as “inactive”.
With SLVLSSFPLLIDNSSIESLV the amyloid nucleation score was -0.82 ± 0.42.
In the case of SLVSYSVHANFCVFIWTNGS, the amyloid nucleation score is reported as 1.25 ± 0.44.
With SLWNSYLETRV the amyloid nucleation score was 1.14 ± 0.69.
SLWRDKDISWGGKSYVHVPS showed an amyloid nucleation score of 1.14 ± 0.75.
With SLYELPWDNYP the amyloid nucleation score was -0.043 ± 1.4.
Substance SMCNEVDGTDGYAAIGLYMY has an amyloid nucleation score of -1.65 ± 2.4.
Work on SMDTLLHP yielded an amyloid nucleation score of -0.155 ± 0.23.
SMFYLSKFAVEFWRRMS showed an amyloid nucleation score of -0.097 ± 0.44.
For SMIGRSCYEV, the amyloid nucleation score was “inactive”.
SMLMFIQIV showed an amyloid nucleation score of 1.96 ± 0.1.
Work on SMLYFRNFRASLLPWAVDFT yielded an amyloid nucleation score of -0.496 ± 1.7.
With SMRWVDL the amyloid nucleation score was 1.19 ± 0.97.
SMSHGWGLLDFLWADCWWPK gave an amyloid nucleation score of -0.031 ± 1.
Substance SMTVNDTLLRLRVGSAILYF has an amyloid nucleation score of -0.852 ± 0.4.
With SMVNNWIMDCLWAILWVIDI the amyloid nucleation score was “inactive”.
Work on SMVTQLRSDNLGHWANSESR yielded an amyloid nucleation score of 0.108 ± 0.34.
Work on SMYVPCRFSTDSTMLPNELK yielded an amyloid nucleation score of -0.19 ± 0.66.
For SNFCDSDLYLFRNWPYYWHS, the amyloid nucleation score was -0.434 ± 0.26.
With SNFSYMSCLLGYLPLILFAA the amyloid nucleation score was 0.014 ± 0.21.
With SNIKLGFLRSLHIMKTSSDL the amyloid nucleation score was -0.113 ± 0.41.
For SNKIGVCSKLMISFPCIEYN, the amyloid nucleation score was -0.065 ± 1.1.
SNNGCRIQRGVRNLAKGSTL showed an amyloid nucleation score of -1.09 ± 0.9.
In the case of SNPIRTNV, the amyloid nucleation score is reported as -0.533 ± 0.38.
With SNPRTFNDPSKPRV the amyloid nucleation score was 0.518 ± 0.35.
Substance SNQAHSMLISTIIMILGCYC has an amyloid nucleation score of 0.419 ± 0.34.
With SNRALMADLKERNVINTPIN the amyloid nucleation score was -0.385 ± 1.9.
For SNREFLQSVVLW, the amyloid nucleation score was 0.209 ± 0.48.
SNRGRNLGSYCVGNYFGCFT showed an amyloid nucleation score of -0.224 ± 1.7.
Substance SNSLFNVSQSRSSKSLYQNA has an amyloid nucleation score of 0.264 ± 0.97.
For SNTSRLVRRVVQSPYTTCGG, the amyloid nucleation score was 0.312 ± 0.46.
In the case of SNTTIFFSFNRVPTISLNHS, the amyloid nucleation score is reported as 3.82 ± 0.1.
With SNYDIWRPILSRWSDREGWV the amyloid nucleation score was 1.34 ± 0.36.
For SPCLLF, the amyloid nucleation score was -0.637 ± 2.1.
SPEFEEAWDGIKFYCKGANP showed an amyloid nucleation score of -1.09 ± 1.2.
In the case of SPEGSPNEHDYTIPAVRGGP, the amyloid nucleation score is reported as 0.775 ± 0.38.
Work on SPFPGKEFNGIVCPLPYSMI yielded an amyloid nucleation score of -0.366 ± 0.56.
